According to patent US20230235040A1 (ALMIRALL S A, published 2023):
Numbering of substitutions follows the chain as printed.

Experiments:
[1] = molecular target: T1, hu-IL-36β (human IL-36β, N-terminally truncated active form R5-E157) (human); test: SPR (Biacore 8K), biotinylated hu-IL-36β captured on CAP chip, Fab injected, 37°C
T1 construct: Purification tag cleaved off; Biotinylated where captured; also called hu-IL-36b
T1 chain: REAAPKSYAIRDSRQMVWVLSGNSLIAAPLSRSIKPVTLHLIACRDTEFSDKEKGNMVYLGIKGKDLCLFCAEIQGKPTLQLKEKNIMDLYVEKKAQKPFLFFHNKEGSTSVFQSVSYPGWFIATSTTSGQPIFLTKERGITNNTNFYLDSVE
Method: (§1) Briefly, a 1:4 dilution of Biotin CAPture Reagent (GE) into HBS-EP buffer (0.01 M HEPES pH 7.4, 0.15 M NaCl, 3 mM EDTA, 0.005% Surfactant P20) was applied to a CAP sensor chip at 2 uL/min flow rate. For kinetics measurements, 6 nM biotinylated human IL-36β was captured at 10 uL/min to achieve ˜50 response units in the second flow cell (FC2). FC1 was kept as a reference. […] The sensorgram was recorded and subject to reference and buffer subtraction before evaluating by BIACORE® 8K Evaluation Software (version 1.1.1.7442). Association rates (kₒₙ) and dissociation rates (koff) were calculated using a simple one-to-one Langmuir binding model.

[2] = molecular target: T1, hu-IL-36β (human IL-36β, N-terminally …); test: cell-based or functional assay
[3] = molecular target: T2, hu-IL-36α (human IL-36α, N-terminally truncated active form K6-F158) (human, UniProt Q9UHA7 6-158); test: cell-based or functional assay
T2 sequence: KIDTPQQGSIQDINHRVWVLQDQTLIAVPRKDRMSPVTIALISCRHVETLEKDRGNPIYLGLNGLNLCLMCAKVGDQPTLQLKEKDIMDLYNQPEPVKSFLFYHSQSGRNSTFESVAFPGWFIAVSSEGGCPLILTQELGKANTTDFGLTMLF

[4] = molecular target: T3, hu-IL-36γ (human IL-36γ, N-terminally truncated active form S18-D169) (human, UniProt Q9NZH8 18-169); test: cell-based or functional assay
T3 sequence: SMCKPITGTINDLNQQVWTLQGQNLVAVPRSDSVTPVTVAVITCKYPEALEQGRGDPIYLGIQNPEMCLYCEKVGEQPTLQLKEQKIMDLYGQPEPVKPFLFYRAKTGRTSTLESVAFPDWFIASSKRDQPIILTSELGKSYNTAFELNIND

[5] = molecular target: T2, hu-IL-36α (human IL-36α, N-terminally …); test: SPR (Biacore 8K), biotinylated hu-IL-36 captured on CAP chip, Fab injected, 37°C
Method: as §1, with “3” for “6”, “IL-36α and human IL-36γ” for “IL-36β”

[6] = molecular target: T3, hu-IL-36γ (human IL-36γ, N-terminally …); test: as above
Method: as §1, with “3” for “6”, “IL-36α and human IL-36γ” for “IL-36β”

[7] = molecular target: T2, hu-IL-36α (human IL-36α, N-terminally …); test: phage competition ELISA: Fab on phage, soluble hu-IL-36α titrated against coated hu-IL-36α
Method: (§2) Selected phages with top binding signal were purified to perform phage competition ELISA. The optimal phage concentration was incubated with serially-diluted human IL-36α or human IL-36γ in ELISA buffer in NUNC F plate for two hours. 80 μL of the mixture was transferred to human IL-36α or human IL-36γ coated wells for 15 min to capture unbound phage. The plate was washed with wash buffer (0.05% TWEEN®20 in PBS), and HRP-conjugated anti-M13 antibody (Sino biological, Cat #11973-MM05-H-50) was added in ELISA buffer for 30 min. The plates were washed and developed as described above. The absorbance at 450 nm was plotted as a function of antigen concentration in solution to determine phage IC50.

[8] = molecular target: T3, hu-IL-36γ (human IL-36γ, N-terminally …); test: phage competition ELISA: Fab on phage, soluble hu-IL-36γ titrated against coated hu-IL-36γ
Method: as §2

B1: mAb6_2.5 Fab (Fab, V domains shown)
VH: ELQLQESGPGLVKPSETLSLTCTVSGGSITASNYYWGWIRQPPGKGLEWIGSIDYTGSTYYEPSLKSRVTISVDTSKNQFSLKLSSVTAADTAVYYCATGSYYETYLGFDVWGQGTLVTVSS
VL: ESVLTQPPSVSGAPGQRVTISCTGSSSNIGAHYDVHWYQQLPGTAPKLLIYGNDNRPSGVPDRFSGSKSGTSASLAITGLQAEDEADYYCQSYDYSLSGYVFGGGTKLTVL
notes: Recombinant Fab with 8xHis tag (Expi293F)
Kd [1]: 0.66 nM
koff [1]: 0.000476 s⁻¹
kon [1]: 717000 M⁻¹ s⁻¹
IC50, IL-36-stimulated IL-8 secretion by HaCat cells [2]: 0.2 nM

B2: mAb1.0 recombinant human IgG1 (antibody, V domains shown)
VH: QVQLVESGGGVVQPGRSLRLSCAASGFSFSAYAMHWVRQAPGKGLEWVAVISYDGTNEYYADSVKGRFTISRDNSKNTLYLQMNSLRAEDTAVYYCARGIRIFTSYFDSWGQGTLVTVSS
VL: B1 VL with E1Q, G52S, D54N, S98R
IC50, HEK-Blue IL-36R SEAP reporter assay [3]: 43 nM
IC50, HEK-Blue IL-36R SEAP reporter assay [4]: 5.3 nM

B3: mAb4.0 recombinant human IgG1 (antibody, V domains shown)
VH: QLQLQESGPGLVKPSETLSLTCTVSGGSIGSRSYYWGWIRQPPGKGLEWIGSIHYSGTTYYNPSLKSRVTISVDTSKNQFSLKLSSVTAADTAVYYCARVAPSYPRVFDYWGQGTLVTVSS
VL: B1 VL with E1Q, H32G, D54R, S98R, G99V
IC50, HEK-Blue IL-36R SEAP reporter assay [3]: 16 nM
IC50, HEK-Blue IL-36R SEAP reporter assay [4]: 52 nM

B4: mAb6 Fab (Fab, V domains shown)
VH: B1 VH with A31S, E62N, T99R, S101K
VL: B1 VL with H32G, D54T, Y95I, Y100W
IC50, IL-36-stimulated IL-8 secretion by HaCat cells [2]: 0.15 nM

B5: mAb5.0 recombinant human IgG1 (antibody, V domains shown)
VH: EVQLLESGGGLVQPGGSLRLSCAASGFTFSTYAMSWVRQAPGKGLEWVSGISGGSGYTYYADSVKGRFTISRDNSKNTLYLQMNSLRAEDTAVYYCARVVTYRDPPASFDYWGQGTLVTVSS
VL: B1 VL with E1Q, S98K, G99A
IC50, HEK-Blue IL-36R SEAP reporter assay [3]: 95 nM
IC50, HEK-Blue IL-36R SEAP reporter assay [4]: 142 nM

B6: mAb3.0 recombinant human IgG1 (antibody, V domains shown)
VH: QLQLQESGPGLVKPSETLSLTCTVSGGSISSTSYYWGWIRQPPGKGLEWIGSIHYSGNTYYNPSLKSRVTISVDTSKNQFSLKLSSVTAADTAVYYCARVHYGGYIPRRFDHWGQGTLVTVSS
VL: B1 VL with E1Q, H32G, D54T, S98R
IC50, HEK-Blue IL-36R SEAP reporter assay [3]: 90 nM
IC50, HEK-Blue IL-36R SEAP reporter assay [4]: 30 nM

B7: mAb6_2.8 Fab (Fab, V domains shown)
VH: B1 VH with E62N, T99S, S101K
VL: B1 VL
notes: as for B1
Kd [1]: 1.08 nM
koff [1]: 0.000343 s⁻¹
kon [1]: 317000 M⁻¹ s⁻¹
IC50, IL-36-stimulated IL-8 secretion by HaCat cells [2]: 0.33 nM

B8: mAb2.12 Fab (Fab, V domains shown)
VH: ELQLQESGPGLVKPSETLSLTCTVSGGSISESSYYWGWIRQPPGKGLEWIGSIYYTGETYYAPSLKSRVTISVDTSKNQFSLKLSSVTAADTAVYYCARVKYGVGVPRYFDPWGQGTLVTVSS
VL: B1 VL
notes: as for B1
Kd [5]: 0.16 nM
koff [5]: 0.000277 s⁻¹
kon [5]: 1.7e+06 M⁻¹ s⁻¹
Kd [6]: 0.28 nM
koff [6]: 0.000503 s⁻¹
kon [6]: 1.81e+06 M⁻¹ s⁻¹

B9: mAb2.9 Fab (Fab, V domains shown)
VH: B8 VH with E31D
VL: B1 VL
notes: as for B1
Kd [5]: 0.12 nM
koff [5]: 0.00026 s⁻¹
kon [5]: 2.19e+06 M⁻¹ s⁻¹
Kd [6]: 0.24 nM
koff [6]: 0.000565 s⁻¹
kon [6]: 2.4e+06 M⁻¹ s⁻¹

B10: mAb6_2.9 Fab (Fab, V domains shown)
VH: B1 VH with A31S, E62N, S101K
VL: B1 VL
notes: as for B1
Kd [1]: 1.37 nM
koff [1]: 0.000411 s⁻¹
kon [1]: 299000 M⁻¹ s⁻¹

B11: mAb2.3 Fab (phage-displayed) (Fab, V domains shown)
VH: B8 VH with E31T, Y34D, E58N, A62L, A98S, K101R
VL: B1 VL
IC50 [7]: 0.82 nM
IC50 [8]: 2.39 nM

B12: mAb2.1 Fab (phage-displayed) (Fab, V domains shown)
VH: B8 VH with E31D, E58N, A62N, P63S, K101R
VL: B1 VL
IC50 [7]: 1.03 nM
IC50 [8]: 4.86 nM

B13: mAb2.2 Fab (phage-displayed) (Fab, V domains shown)
VH: B8 VH with E58N, A62N, R99G, K101R
VL: B1 VL
IC50 [7]: 0.75 nM
IC50 [8]: 3.79 nM

B14: mAb2.7 Fab (phage-displayed) (Fab, V domains shown)
VH: B8 VH with E31R, E58N, A62W, A98T, K101R
VL: B1 VL
IC50 [7]: 1.2 nM
IC50 [8]: 1.53 nM

B15: mAb2.8 Fab (Fab, V domains shown)
VH: B8 VH with E31D, V100L, K101R
VL: B1 VL
notes: as for B1
Kd [5]: 0.14 nM
koff [5]: 0.000254 s⁻¹
kon [5]: 1.83e+06 M⁻¹ s⁻¹
Kd [6]: 0.17 nM
koff [6]: 0.000301 s⁻¹
kon [6]: 1.8e+06 M⁻¹ s⁻¹

B16: mAb2.6 Fab (phage-displayed) (Fab, V domains shown)
VH: B8 VH with E31T, Y35H, E58N, A62M, A98V, K101R
VL: B1 VL
IC50 [7]: 1.62 nM
IC50 [8]: 1.99 nM

B17: mAb6_2.7 Fab (Fab, V domains shown)
VH: B1 VH with Y34T, E62N, S101K
VL: B1 VL
notes: as for B1
Kd [1]: 0.61 nM
koff [1]: 0.00018 s⁻¹
kon [1]: 297000 M⁻¹ s⁻¹
IC50, IL-36-stimulated IL-8 secretion by HaCat cells [2]: 0.2 nM

B18: mAb6_2.10 Fab (Fab, V domains shown)
VH: B1 VH with A31S, E62Q, T99R, S101N
VL: B1 VL
notes: as for B1
Kd [1]: 2.47 nM
koff [1]: 0.00103 s⁻¹
kon [1]: 415000 M⁻¹ s⁻¹

B19: mAb6_2.6 Fab (Fab, V domains shown)
VH: B1 VH with S101N
VL: B1 VL
notes: as for B1
Kd [1]: 0.82 nM
koff [1]: 0.000705 s⁻¹
kon [1]: 856000 M⁻¹ s⁻¹

B20: mAb2.5 Fab (phage-displayed) (Fab, V domains shown)
VH: B8 VH with E58N, A62L, K101R
VL: B1 VL
IC50 [7]: 0.77 nM
IC50 [8]: 1.88 nM

B21: mAb2.4 Fab (phage-displayed) (Fab, V domains shown)
VH: B8 VH with E31N, E58N, A62L, K101R
VL: B1 VL
IC50 [7]: 0.68 nM
IC50 [8]: 1.52 nM
